From publication PMC7911445
Where two headings read alike, the source gives them in different places.

β-catenin: 1-mM LiCl (GSK3β inhibitor) added to TMA/BL-treated cultures
localisation_or_trafficking (phosphorylation at S33): increases
localisation_or_trafficking (phosphorylation at S37): increases
